Consider two variants from IntAct's records for PubMed 19559006.

First the molecules themselves.
B1: Kinesin-like protein KIF21A (Homo sapiens), Q7Z4S6 (parent)
chain: MLGAPDESSVRVAVRIRPQLAKEKIEGCHICTSVTPGEPQVFLGKDKAFTFDYVFDIDSQQEQIYIQCIEKLIEGCFEGYNATVFAYGQTGAGKTYTMGTGFDVNIVEEELGIISRAVKHLFKSIEEKKHIAIKNGLPAPDFKVNAQFLELYNEEVLDLFDTTRDIDAKSKKSNIRIHEDSTGGIYTVGVTTRTVNTESEMMQCLKLGALSRTTASTQMNVQSSRSHAIFTIHVCQTRVCPQIDADNATDNKIISESAQMNEFETLTAKFHFVDLAGSERLKRTGATGERAKEGISINCGLLALGNVISALGDKSKRATHVPYRDSKLTRLLQDSLGGNSQTIMIACVSPSDRDFMETLNTLKYANRARNIKNKVMVNQDRASQQINALRSEITRLQMELMEYKTGKRIIDEEGVESINDMFHENAMLQTENNNLRVRIKAMQETVDALRSRITQLVSDQANHVLARAGEGNEEISNMIHSYIKEIEDLRAKLLESEAVNENLRKNLTRATARAPYFSGSSTFSPTILSSDKETIEIIDLAKKDLEKLKRKEKRKKKRLQKLEESNREERSVAGKEDNTDTDQEKKEEKGVSERENNELEVEESQEVSDHEDEEEEEEEEEDDIDGGESSDESDSESDEKANYQADLANITCEIAIKQKLIDELENSQKRLQTLKKQYEEKLMMLQHKIRDTQLERDQVLQNLGSVESYSEEKAKKVRSEYEKKLQAMNKELQRLQAAQKEHARLLKNQSQYEKQLKKLQQDVMEMKKTKVRLMKQMKEEQEKARLTESRRNREIAQLKKDQRKRDHQLRLLEAQKRNQEVVLRRKTEEVTALRRQVRPMSDKVAGKVTRKLSSSDAPAQDTGSSAAAVETDASRTGAQQKMRIPVARVQALPTPATNGNRKKYQRKGLTGRVFISKTARMKWQLLERRVTDIIMQKMTISNMEADMNRLLKQREELTKRREKLSKRREKIVKENGEGDKNVANINEEMESLTANIDYINDSISDCQANIMQMEEAKEEGETLDVTAVINACTLTEARYLLDHFLSMGINKGLQAAQKEAQIKVLEGRLKQTEITSATQNQLLFHMLKEKAELNPELDALLGHALQDLDSVPLENVEDSTDEDAPLNSPGSEGSTLSSDLMKLCGEVKPKNKARRRTTTQMELLYADSSELASDTSTGDASLPGPLTPVAEGQEIGMNTETSGTSAREKELSPPPGLPSKIGSISRQSSLSEKKIPEPSPVTRRKAYEKAEKSKAKEQKHSDSGTSEASLSPPSSPPSRPRNELNVFNRLTVSQGNTSVQQDKSDESDSSLSEVHRSSRRGIINPFPASKGIRAFPLQCIHIAEGHTKAVLCVDSTDDLLFTGSKDRTCKVWNLVTGQEIMSLGGHPNNVVSVKYCNYTSLVFTVSTSYIKVWDIRDSAKCIRTLTSSGQVTLGDACSASTSRTVAIPSGENQINQIALNPTGTFLYAASGNAVRMWDLKRFQSTGKLTGHLGPVMCLTVDQISSGQDLIITGSKDHYIKMFDVTEGALGTVSPTHNFEPPHYDGIEALTIQGDNLFSGSRDNGIKKWDLTQKDLLQQVPNAHKDWVCALGVVPDHPVLLSGCRGGILKVWNMDTFMPVGEMKGHDSPINAICVNSTHIFTAADDRTVRIWKARNLQDGQISDTGDLGEDIASN
partner: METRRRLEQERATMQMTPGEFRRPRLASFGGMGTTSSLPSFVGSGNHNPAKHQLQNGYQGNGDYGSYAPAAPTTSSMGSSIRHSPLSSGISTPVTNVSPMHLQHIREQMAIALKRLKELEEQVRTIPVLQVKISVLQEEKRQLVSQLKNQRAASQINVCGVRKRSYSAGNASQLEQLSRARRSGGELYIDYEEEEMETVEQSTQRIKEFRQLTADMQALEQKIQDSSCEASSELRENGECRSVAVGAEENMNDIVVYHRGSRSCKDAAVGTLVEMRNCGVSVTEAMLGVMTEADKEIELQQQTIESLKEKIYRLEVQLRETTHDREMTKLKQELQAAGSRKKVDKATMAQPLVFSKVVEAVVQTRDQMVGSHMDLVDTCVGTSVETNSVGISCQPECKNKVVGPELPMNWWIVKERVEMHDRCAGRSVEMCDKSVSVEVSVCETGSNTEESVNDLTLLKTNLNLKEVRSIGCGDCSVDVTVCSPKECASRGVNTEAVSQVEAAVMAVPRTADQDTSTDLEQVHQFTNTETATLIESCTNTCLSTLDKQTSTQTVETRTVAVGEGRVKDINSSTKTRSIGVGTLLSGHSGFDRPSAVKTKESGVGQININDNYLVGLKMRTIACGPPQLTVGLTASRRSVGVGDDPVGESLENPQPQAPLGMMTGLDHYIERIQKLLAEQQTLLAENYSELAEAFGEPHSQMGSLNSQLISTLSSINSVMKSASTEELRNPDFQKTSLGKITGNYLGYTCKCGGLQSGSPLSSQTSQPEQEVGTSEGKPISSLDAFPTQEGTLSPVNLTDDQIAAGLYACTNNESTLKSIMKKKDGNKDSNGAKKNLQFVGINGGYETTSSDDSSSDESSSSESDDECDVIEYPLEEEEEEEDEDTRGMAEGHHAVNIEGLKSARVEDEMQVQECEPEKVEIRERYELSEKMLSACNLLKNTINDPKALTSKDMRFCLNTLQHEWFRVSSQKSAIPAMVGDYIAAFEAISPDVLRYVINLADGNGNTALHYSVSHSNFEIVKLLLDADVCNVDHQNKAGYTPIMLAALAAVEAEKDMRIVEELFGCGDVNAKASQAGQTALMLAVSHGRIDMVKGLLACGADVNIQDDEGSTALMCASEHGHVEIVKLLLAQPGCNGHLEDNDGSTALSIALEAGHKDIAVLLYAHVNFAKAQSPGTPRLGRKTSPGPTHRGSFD

This assay covers variants of B1. The conditions noted are these: with KANK1, Q14678-2.
In the case of R954W, the “effect of a mutation on the interaction” value is listed as “increasing interaction”.

In the case of M947T, the “effect of a mutation on the interaction” value is on record as “increasing interaction”.
